Laboratory results reported in US7208301B2, “Method for producing 6-0-α-D-glucopyranosyl-D-sorbitol” (Südzucker Aktiengesellschaft Mannheim/Ochsenfurt, priority 1999, dated 2007).

Experiment: Storage stability of purified SDH
Type: physicochemical
Method: In another preferred embodiment the temperature of the aqueous reaction solution is 20° C. to 40° C., especially 25° C., in the enzymatic conversion. At temperatures of 25° C. the purified SDH has stability of about a week. Thus, temperatures in this range are well-suited for conducting long-term enzyme-catalyzed processes.
The purified SDH can be stored for about 8 months at −30° C. and the SDH is stable for about 30 days at +4° C.

B1: SDH: sorbitol dehydrogenase of Gluconobacter suboxidans DSM 2003, 262 amino acids (SEQ ID No. 1), purified per Example 1 (protein)
chain: MSKKFNGKVCLVTGAGGNIGLATALRLAEEGTAIALLDMNREALEKAEASVREKGVEARSYVCDVTSEEAVIGTVDSVVRDFGKIDFLFNNAGYQGAFAPVQDYPSDDFARVLTINVTGAFHVLKAVSRQMITQNYGRIVNTASMAGVKGPPNMAAYGASKGAIIALTETAALDLAPYNIRVNAISPGYMGPGFMWERQVELQAKVGSQYFSTDPKVVAQQMIGSVPMRRYGDINEIPGVVAFLLGDDSSFMTGVNLPIAGG
modifications: Gluconobacter suboxydans
For B1, the “stability of purified SDH” value (at 25° C.) was “about a week”, the “stability of SDH” value (at +4° C.) was “about 30 days” and the “storage time of purified SDH” value (at −30° C.) was “about 8 months”.
